This experiment concerns the target Arabidopsis thaliana Receptor-Like Protein 30, GFP-tagged (RLP30-GFP) (Arabidopsis thaliana) (UniProt Q9MA83).
UniProt Q9MA83, sequence (Q9MA83 31-786): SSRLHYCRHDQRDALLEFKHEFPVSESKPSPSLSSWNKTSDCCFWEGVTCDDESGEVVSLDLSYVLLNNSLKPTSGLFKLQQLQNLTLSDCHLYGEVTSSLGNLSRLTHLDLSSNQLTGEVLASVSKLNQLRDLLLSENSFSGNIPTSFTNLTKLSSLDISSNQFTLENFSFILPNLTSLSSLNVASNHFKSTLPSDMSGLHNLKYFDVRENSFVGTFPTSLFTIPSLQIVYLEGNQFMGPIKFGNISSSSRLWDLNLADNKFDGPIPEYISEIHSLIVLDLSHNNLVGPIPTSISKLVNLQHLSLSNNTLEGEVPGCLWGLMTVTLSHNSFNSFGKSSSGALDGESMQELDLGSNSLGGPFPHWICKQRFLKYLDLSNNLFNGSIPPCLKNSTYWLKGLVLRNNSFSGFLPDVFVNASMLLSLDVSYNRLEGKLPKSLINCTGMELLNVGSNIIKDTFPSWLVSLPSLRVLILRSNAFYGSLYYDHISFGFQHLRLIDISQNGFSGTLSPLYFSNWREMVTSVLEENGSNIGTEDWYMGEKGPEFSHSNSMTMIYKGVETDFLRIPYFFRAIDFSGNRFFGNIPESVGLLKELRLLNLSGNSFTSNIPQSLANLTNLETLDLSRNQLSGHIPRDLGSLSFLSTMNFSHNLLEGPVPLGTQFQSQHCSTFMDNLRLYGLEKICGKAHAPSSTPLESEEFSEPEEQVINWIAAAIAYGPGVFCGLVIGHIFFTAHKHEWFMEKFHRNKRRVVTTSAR

“SMALL CYSTEINE-RICH PROTEIN FROM S. SCLEROTIORUM, myc-tagged (SCP^Ss-myc) (ligand)” showed an ethylene production in Arabidopsis Col-0 plants, half-maximal induction (EC50); the protein applied was His-tagged SCP^Ss from P. pastoris, affinity purified via His-Trap columns of 26 nM.

Source of the values: PMC10279758.
